Assay results: the supplement of paper PMC5998384

Tests used:
HeLa Kyoto [1] = assay: solubility change mitosis vs G1/S (difference of NP-40 vs SDS log2 ratios) (log2 ratio difference); higher = more soluble in mitosis
HeLa Kyoto [2] = assay: solubility in G1/S (NP-40 vs SDS abundance) (log2 ratio); higher = more soluble; conditions: cell cycle stage: G1/S
HeLa Kyoto [3] = assay: thermal stability score vs G1/S (z-score of summed log2 fold changes over temperatures); higher = more thermally stable than in G1/S
HeLa Kyoto [4] = assay: melting temperature (median over replicates), in situ; higher = more thermally stable
[5] = cell cycle stage: early G1 (4.5 h after nocodazole release)
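Wherever melting temperature (median over replicates), in situ is given: HeLa Kyoto cells synchronized by double thymidine or nocodazole block, proteins quantified by TMT10plex mass spectrometry, three independent biological replicates.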
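Wherever solubility change mitosis vs G1/S (difference of NP-40 vs SDS log2 ratios) is given: synchronized HeLa Kyoto cells (double thymidine block for G1/S, nocodazole release for mitosis), protein amounts in NP-40 versus SDS lysates quantified by mass spectrometry, three biological replicates.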
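Wherever solubility in G1/S (NP-40 vs SDS abundance) is given: HeLa Kyoto cells arrested at G1/S by double thymidine block, proteins quantified by TMT10plex mass spectrometry in mild NP-40 versus SDS extracts, three biological replicates.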
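Wherever thermal stability score vs G1/S (z-score of summed log2 fold changes over temperatures) is given: synchronized HeLa Kyoto cells, proteins quantified by TMT10plex mass spectrometry, three biological replicates, mitosis taken 0.5 h after nocodazole release, G1/S directly after double thymidine block.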

Chain of THBS1 (chain, as listed by the source): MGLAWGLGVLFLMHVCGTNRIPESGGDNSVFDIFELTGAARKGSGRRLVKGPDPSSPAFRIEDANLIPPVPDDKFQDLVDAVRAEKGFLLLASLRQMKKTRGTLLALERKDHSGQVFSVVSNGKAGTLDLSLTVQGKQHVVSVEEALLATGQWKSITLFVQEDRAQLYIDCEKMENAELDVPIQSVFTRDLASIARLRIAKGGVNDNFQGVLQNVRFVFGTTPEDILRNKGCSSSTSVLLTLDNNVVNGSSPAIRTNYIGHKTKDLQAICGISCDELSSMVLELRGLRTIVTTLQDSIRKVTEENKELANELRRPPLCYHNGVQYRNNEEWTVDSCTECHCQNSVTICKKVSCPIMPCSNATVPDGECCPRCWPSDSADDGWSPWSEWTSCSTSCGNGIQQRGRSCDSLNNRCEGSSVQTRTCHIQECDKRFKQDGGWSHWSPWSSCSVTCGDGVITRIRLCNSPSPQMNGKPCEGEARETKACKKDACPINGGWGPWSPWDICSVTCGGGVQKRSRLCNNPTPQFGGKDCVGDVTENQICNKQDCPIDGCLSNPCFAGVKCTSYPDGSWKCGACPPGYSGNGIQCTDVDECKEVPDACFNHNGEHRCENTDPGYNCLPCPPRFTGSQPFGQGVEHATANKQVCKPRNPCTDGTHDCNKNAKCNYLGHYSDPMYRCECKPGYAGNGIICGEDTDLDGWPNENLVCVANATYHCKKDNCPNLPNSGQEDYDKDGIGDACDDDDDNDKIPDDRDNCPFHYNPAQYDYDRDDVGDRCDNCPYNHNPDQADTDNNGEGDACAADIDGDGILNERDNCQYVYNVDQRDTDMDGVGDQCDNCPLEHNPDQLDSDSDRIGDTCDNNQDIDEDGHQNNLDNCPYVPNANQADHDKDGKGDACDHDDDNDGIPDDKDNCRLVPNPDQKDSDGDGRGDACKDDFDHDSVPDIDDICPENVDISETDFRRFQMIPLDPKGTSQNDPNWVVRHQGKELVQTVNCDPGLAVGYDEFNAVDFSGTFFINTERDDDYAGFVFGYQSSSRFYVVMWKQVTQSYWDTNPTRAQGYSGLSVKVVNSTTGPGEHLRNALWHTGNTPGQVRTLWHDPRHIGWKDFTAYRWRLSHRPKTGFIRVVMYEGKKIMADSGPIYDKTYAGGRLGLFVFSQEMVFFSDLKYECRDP
Chain of CDC42 (chain, as listed by the source): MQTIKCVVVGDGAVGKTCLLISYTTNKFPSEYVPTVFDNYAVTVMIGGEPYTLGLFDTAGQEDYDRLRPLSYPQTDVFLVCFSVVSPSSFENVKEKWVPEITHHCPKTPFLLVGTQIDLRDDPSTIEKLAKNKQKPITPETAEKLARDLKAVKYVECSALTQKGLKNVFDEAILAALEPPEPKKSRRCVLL
Chain of COPE (chain, as listed by the source): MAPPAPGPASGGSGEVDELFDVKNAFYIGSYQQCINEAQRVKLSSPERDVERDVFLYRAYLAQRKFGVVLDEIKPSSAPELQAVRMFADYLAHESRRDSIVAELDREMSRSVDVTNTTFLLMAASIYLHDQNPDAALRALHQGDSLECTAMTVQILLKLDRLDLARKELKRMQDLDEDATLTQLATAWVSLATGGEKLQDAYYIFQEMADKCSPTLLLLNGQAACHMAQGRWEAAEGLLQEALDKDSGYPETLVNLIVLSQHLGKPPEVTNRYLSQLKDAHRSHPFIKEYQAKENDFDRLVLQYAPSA
Chain of ANKH (chain, as listed by the source): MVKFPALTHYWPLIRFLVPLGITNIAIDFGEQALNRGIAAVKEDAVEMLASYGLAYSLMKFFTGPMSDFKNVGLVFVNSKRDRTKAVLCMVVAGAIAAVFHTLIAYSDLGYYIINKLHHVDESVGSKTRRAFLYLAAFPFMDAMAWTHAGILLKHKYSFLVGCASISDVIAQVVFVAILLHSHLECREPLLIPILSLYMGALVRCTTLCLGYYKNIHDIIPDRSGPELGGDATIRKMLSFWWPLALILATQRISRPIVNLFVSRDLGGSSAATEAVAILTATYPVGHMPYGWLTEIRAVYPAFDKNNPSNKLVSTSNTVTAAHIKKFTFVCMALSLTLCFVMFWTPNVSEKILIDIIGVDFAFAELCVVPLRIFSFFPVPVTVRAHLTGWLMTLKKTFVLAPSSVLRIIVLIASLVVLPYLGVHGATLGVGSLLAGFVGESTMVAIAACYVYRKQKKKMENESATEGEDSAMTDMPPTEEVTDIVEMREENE
Chain of ARFGAP2 (chain, as listed by the source): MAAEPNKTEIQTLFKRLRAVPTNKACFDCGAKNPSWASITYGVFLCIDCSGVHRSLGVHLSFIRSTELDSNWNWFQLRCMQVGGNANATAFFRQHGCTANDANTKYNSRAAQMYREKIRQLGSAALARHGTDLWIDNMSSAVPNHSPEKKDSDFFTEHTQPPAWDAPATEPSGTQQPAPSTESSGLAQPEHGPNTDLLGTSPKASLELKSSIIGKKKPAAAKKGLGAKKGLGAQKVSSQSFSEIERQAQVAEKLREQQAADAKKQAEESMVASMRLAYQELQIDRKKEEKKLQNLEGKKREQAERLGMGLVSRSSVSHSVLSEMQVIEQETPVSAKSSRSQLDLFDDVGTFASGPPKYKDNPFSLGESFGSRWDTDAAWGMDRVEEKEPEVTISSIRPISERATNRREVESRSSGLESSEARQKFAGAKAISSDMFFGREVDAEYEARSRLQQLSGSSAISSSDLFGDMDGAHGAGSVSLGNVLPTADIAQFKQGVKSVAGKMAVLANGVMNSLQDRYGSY
Chain of CDK16 (chain, as listed by the source): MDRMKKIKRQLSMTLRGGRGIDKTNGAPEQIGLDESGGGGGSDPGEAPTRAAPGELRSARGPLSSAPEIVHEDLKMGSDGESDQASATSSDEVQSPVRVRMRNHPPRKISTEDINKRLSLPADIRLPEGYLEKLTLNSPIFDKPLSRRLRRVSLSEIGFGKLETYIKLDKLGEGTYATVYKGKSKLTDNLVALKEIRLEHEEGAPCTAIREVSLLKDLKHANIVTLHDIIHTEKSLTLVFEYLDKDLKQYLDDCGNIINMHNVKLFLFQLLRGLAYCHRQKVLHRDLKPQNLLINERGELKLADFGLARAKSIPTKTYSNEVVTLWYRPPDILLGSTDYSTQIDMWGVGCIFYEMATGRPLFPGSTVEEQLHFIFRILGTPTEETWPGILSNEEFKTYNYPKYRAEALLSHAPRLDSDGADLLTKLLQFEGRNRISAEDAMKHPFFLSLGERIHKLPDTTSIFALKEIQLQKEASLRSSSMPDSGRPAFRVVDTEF

| Substance | solubility change mitosis (log2) (HeLa Kyoto [1]) | solubility in G1/S (log2) (HeLa Kyoto [2]) | thermal stability score (HeLa Kyoto [3]; [5]) | thermal stability score (HeLa Kyoto [3]; cell cycle stage: mitosis) | melting temperature (HeLa Kyoto [4]; cell cycle stage: G1/S) | melting temperature (HeLa Kyoto [4]; cell cycle stage: mitosis) |
| --- | --- | --- | --- | --- | --- | --- |
| AKAP9 | -0.0345 | -0.0993 | 1.11 | 1.77 | 49.3 °C | 49.6 °C |
| ALDH3A2 | -0.0531 | -0.186 | -0.835 | -0.622 | 51 °C | 50.7 °C |
| ANKH | 0.155 | -0.292 | -1.21 | -1.75 | 54.9 °C | 58.2 °C |
| ARFGAP2 | -0.11 | 0.205 | -0.318 | -0.233 | 49.6 °C | 49.4 °C |
| ARFGEF2 | -0.155 | -0.186 | 0.0515 | -0.274 | 50.7 °C | 50.5 °C |
| ARHGAP35 | -0.124 | -0.0977 | 1.69 | 3.46 | 48.6 °C | 49.4 °C |
| ARHGEF12 | -0.0996 | -0.0555 | -0.146 | 0.3 | 50.7 °C | 50.4 °C |
| ASL | 0.00521 | -0.0391 | 3.02 | 4.07 | 51.4 °C | 52.1 °C |
| ATP1B3 | 0.0393 | 0.832 | -1.58 | -2.77 | 55.5 °C | 56.1 °C |
| ATP13A1 | -0.00617 | -0.281 | -0.031 | -0.441 | 53.1 °C | 52.9 °C |
| BIRC6 | -0.125 | -0.141 | -0.354 | -0.341 | 51.6 °C | 51.2 °C |
| CAD | -0.146 | -0.137 | -0.499 | 0.0146 | 50.6 °C | 50 °C |
| CARKD | -0.211 | 0.243 | -0.234 | -1.33 | 54.8 °C | 56.1 °C |
| CASC5 | -0.0741 | -0.247 | 1.3 | 1.4 | 47.7 °C | 48.3 °C |
| CDC42 | -0.0727 | 0.629 | -1.73 | 1.82 | 60.1 °C | 59.8 °C |
| CDC42BPA | -0.0814 | -0.143 | -0.472 | 0.207 | 49.8 °C | 50.3 °C |
| CDK16 | -0.105 | 0.548 | -0.616 | 0.901 | 50.7 °C | 53.1 °C |

| Substance | solubility change mitosis (log2) (HeLa Kyoto [1]) | solubility in G1/S (log2) (HeLa Kyoto [2]) | thermal stability score (HeLa Kyoto [3]; [5]) | thermal stability score (HeLa Kyoto [3]; cell cycle stage: mitosis) | melting temperature (HeLa Kyoto [4]; cell cycle stage: G1/S) | melting temperature (HeLa Kyoto [4]; cell cycle stage: mitosis) |
| --- | --- | --- | --- | --- | --- | --- |
| CELSR2 | -0.142 | 0.141 | -4.5 | -5.14 | 56.8 °C | 54.6 °C |
| CEP170 | 0.0625 | -0.112 | 0.653 | 2.64 | 50.3 °C | 51.5 °C |
| CIT | -0.113 | -0.0433 | 0.287 | 0.352 | 50.1 °C | 50.4 °C |
| CLASP1 | -0.0633 | -0.0269 | -0.916 | 0.139 | 48.8 °C | 49.2 °C |
| CLTCL1 | -0.0594 | -0.305 | 0.282 | 0.64 | 50.8 °C | 49.8 °C |
| COL5A1 | 0.0059 | -0.2 | -0.461 | 1.15 | 55.6 °C | 55.3 °C |
| COPE | 0.0106 | 0.212 | -0.526 | -0.936 | 50.3 °C | 50.9 °C |
| CSPG4 | 0.0955 | 0.0261 | -3.28 | 0.175 | 54.8 °C | 55 °C |
| MVDRLANSEANTRRISIVENCFGAAGQPLTIPGRVLIGEGVLTKLCRKKPKARQFFLFNDILVYGNIVIQKKKYNKQHIIPLENVTIDSIKDEGDLRNGWLIKTPTKSFAVYAATATEKSEWMNHINKCVTDLLSKSGKTPSNEHAAVWVPDSEATVCMRCQKAKFTPVNRRHHCRKCGFVVCGPCSEKRFLLPSQSSKPVRICDFCYDLLSAGDMATCQPARSDSYSQSLKSPLNDMSDDDDDDDSSD [PLEKHF2] | -0.0311 | 0.163 | 0.212 | 0.829 | – | – |
| MWHEARKHERKLRGMMVDYKKRAERRREYYEKIKKDPAQFLQVHGRACKVHLDSAVALAAESPVNMMPWQGDTNNMIDRFDVRAHLDHIPDYTPPLLTTISPEQESDERKCNYERYRGLVQNDFAGISEEQCLYQIYIDELYGGLQRPSEDEKKKLAEKKASIGYTYEDSTVAEVEKAAEKPEEEESAAEEESNSDEDEVIPDIDVEVDVDELNQEQVADLNKQATTYGMADGDFVRMLRKDKEEAEAIKHAKALEEEKAMYSGRRSRRQRREFREKRLRGRKISPPSYARRDSPTYDPYKRSPSESSSESRSRSRSPTPGREEKITFITSFGGSDEEAAAAAAAAAASGVTTGKPPAPPQPGGPAPGRNASARRRSSSSSSSSSASRTSSSRSSSRSSSRSRRGGGYYRSGRHARSRSRSWSRSRSRSRRYSRSRSRGRRHSGGGSRDGHRYSRSPARRGGYGPRRRSRSRSHSGDRYRRGGRGLRHHSSSRSRSSWSLSPSRSRSLTRSRSHSPSPSQSRSRSRSRSQSPSPSPAREKLTRPAASPAVGEKLKKTEPAAGKETGAAKPKLTPQEKLKLRMQKALNRQFKADKKAAQEKMIQQEHERQEREDELRAMARKIRMKERERREKEREEWERQYSRQSRSPSPRYSREYSSSRRRSRSRSRSPHYRH [CLASRP] | 0.526 | -0.572 | 0.728 | 0.776 | – | – |
| NHSL1 | -0.0684 | -0.0561 | 0.447 | 1.09 | – | – |
| PPL | 0.304 | -0.342 | -0.748 | 1.36 | – | – |
| SVIL | 0.176 | -1.65 | -0.947 | 0.478 | – | – |
| TACC1 | -0.0581 | 0.335 | -4.04 | -4.77 | – | – |
| THBS1 | 0.0125 | -0.19 | 4.61 | 5.07 | – | – |
| URB2 | 0.744 | -1.43 | 1.35 | 1.43 | – | – |
